The record followed here is patent publication US20250367313A1 (MULTITUDE, published 2025).

First the molecules themselves.
T1: human MUC18 (human, UniProt P43121 24-646)
T1 sequence: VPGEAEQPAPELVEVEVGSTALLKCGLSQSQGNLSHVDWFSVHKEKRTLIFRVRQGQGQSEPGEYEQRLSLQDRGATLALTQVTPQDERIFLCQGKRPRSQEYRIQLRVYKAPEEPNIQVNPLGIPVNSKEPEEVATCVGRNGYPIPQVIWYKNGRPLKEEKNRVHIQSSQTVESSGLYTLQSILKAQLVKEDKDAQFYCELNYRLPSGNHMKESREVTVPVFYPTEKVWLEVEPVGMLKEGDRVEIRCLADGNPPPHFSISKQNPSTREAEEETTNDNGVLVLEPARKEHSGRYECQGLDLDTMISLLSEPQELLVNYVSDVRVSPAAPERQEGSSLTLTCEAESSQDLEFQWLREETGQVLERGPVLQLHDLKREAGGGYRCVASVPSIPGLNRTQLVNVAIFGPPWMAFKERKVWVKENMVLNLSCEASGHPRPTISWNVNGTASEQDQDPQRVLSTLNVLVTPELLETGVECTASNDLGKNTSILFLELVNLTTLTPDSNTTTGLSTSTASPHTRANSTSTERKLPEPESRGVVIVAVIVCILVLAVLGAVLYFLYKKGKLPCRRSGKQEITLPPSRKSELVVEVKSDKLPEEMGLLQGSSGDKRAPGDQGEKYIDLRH

T2: recombinant MUC18 protein (rProtein) (Homo sapiens (Human), UniProt P43121 24-559)
T2 sequence: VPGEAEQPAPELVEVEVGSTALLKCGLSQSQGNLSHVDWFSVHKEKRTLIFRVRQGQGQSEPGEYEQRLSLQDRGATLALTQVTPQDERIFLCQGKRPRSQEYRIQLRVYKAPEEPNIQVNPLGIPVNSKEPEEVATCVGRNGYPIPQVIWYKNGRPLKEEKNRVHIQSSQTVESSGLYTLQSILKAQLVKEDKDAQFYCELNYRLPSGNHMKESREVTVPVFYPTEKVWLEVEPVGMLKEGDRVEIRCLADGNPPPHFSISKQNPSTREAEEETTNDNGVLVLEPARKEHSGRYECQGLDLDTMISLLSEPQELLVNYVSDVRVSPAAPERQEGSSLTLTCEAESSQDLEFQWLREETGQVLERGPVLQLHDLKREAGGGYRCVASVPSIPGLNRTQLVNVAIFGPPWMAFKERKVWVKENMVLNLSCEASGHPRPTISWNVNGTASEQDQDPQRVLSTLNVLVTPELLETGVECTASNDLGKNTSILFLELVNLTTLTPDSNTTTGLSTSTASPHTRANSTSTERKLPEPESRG

B1: J253-vc-MMAE (antibody, V domains shown)
VH: QVQLQQSGAELVKPGASVKLSCKASGYTFTSYDINWVRQRPEQGLEWIGWIFPGDGSTDYNEKFKGKATLTTDKSSSTAYMQLSRLTSEDSAVYFCARYHFFDNWGQGTTLTVSS
VL: DIVITQDELSNPVTSGESVSISCRSSKSLLYKDGKTYLSWFLQRPGQSPQLLIYLMSTRASGVSDRFSGSGSGTDFTLEISRVKAEDVGVYYCQQLVEYPYTFGGGTKLEIK
modifications: maleimidocaproyl-Val-Cit-PAB-MMAE coupled to the antibody by a thiol-based reaction; sites and drug load not stated
B2: CL070341 (antibody, V domains shown)
VH: EVQLVESGGDLVRPGGSLKLSCAASGFTFSTYGMSWVRQSPDKRLEWVATINSRASYTYYPDSVKGRFTISRDNAKNTLYLQMSSLKSEDTGLYFCARHRRDWDSYYAMDYWGQGTSVTVSS
VL: NIMLTQSPSSLAVSTGDKVTMNCKSSQSVLYNSNQKNYLAWYQQKPGQSPTLLIYWASTSESGVPDRFTGSGSGTDFTLTISSVQAEDLAVYYCHQYLSSWTFGGGTKLEIK
notes: also called anti-MUC18 antibody CL070341
B3: CL070350 (antibody, V domains shown)
VH: AVQLVESGGDLLRPGGSLKLSCVASGFTFNNYGMSWVRQTPDKRLEWVATINRGGSYTYYTDSVKGRFTISRDNAKKTLYLQMSSLKSEDTAMYYCARHRRDWDSYYAMDYWGQGTSVTVSS
VL: NIMMTQSPSSLAVSAGDKVAMSCKSSRSVLYNSNQKNYLAWYQLKPGQSPKLLIYWASTRESGVPDRFTGSGSGTDFTLTISSVQAEDLAVYYCHQYLSSWTFGGGTKVEIK
notes: also called anti-MUC18 antibody CL070350
B4: CL070349 (antibody, V domains shown)
VH: DVQLQESGPGLVKPSQSLSLTCSVTGYSITSGFYWNWIRQLPGNKLEWLGYINFGGTNNYNPSLKIRGSITRDTSKNQFFLKLNSVTTEDTATYYCARGGNDGGFTYWGQGTLVTVSA
VL: ENVLTQSPAIVAASLGQKVTMTCRASSSVSSTYFHWYQQKSGASPKPLLHRTSNLASGVPARFSGSGSGTSYSLTISSVEAEDDATYYCHQWSGYPYTFGGGTKLEIK
notes: also called anti-MUC18 antibody CL070349
B5: CL070333 (antibody, V domains shown)
VH: QVQLQQSGPELVKPGTSVKISCKASGFTFTGYYLHWLKQRPGQGLEWIGWIYPGNVNTEFNEKFKGQATLTADKSSSTAYMQLSSLTSEDSAVYFCARSGYFASSYEFAYWGQGTLVTVSA
VL: DIQMTQSPASLSASVGETVTITCRASENIYSYLAWYQQKQGKSPQLLVYNAKTLAEGVPSRFSVSGSGTHFSLKINSLQPEDFGSYYCQHHYGTPLTFGAGTKLELK
notes: also called anti-MUC18 antibody CL070333
B6: CL070336 (antibody, V domains shown)
VH: DVQLQESGPDLVKPYQSLSLTCTVTGYSITSGYSWHWIRQFPGNKLEWLGYMHYSATPNYNPSLKSRISITRDTSKNQFFLQLNSVTTEDTATYYCSRSLNWDVLDYWGQGTTLIVSS
VL: DIVLTQSPAYLPVSLGQRATISCRASKSVRTSGYNYLHWYQQKPGQPPKLLIYLASNPESGVPGRFSGSGSGTDFTLNIHPVEEEDSATYYCQHSREFPFTFGGGTQLEIK
notes: also called anti-MUC18 antibody CL070336
B7: CL070335 (antibody, V domains shown)
VH: DVQLQESGPDLVKPSQSLSLTCTVTGYSITSGYSWHWIRQFPGNKLEWMGYIHYSTTTNYNPSLKSRISITRDTSKNQFFLQLSSVTTEDTATYFCSRSLNWDVLDYWGQGTTLIVSS
VL: DIVLTQSPAYLPVSLGQRATISCRASKSVRTSGYSYLHWYQQKPGQPPKLLIYLASNLESGVPDRFSGSGSGTDFTLNIHPVEEEDAATYYCQHTREFPFTFGGGTKLEIK
notes: also called anti-MUC18 antibody CL070335
B8: CL070324 (antibody, V domains shown)
VH: EVLLQQSGPELVKPGASVKIPCKASGYTFTDYNMDWVKQSHGKSLEWIGDINPNNGATLYNQNFRGKATLTVDKSSSTAYMELRSLTSEDTAVYYCTRSGYDDYYALDYWGQGTSVTVSS
VL: QTVLTQSPAIMSASLGEEITLTCSASSSVGYMHWYQQKSGTSPKLLIYSTSNLASGVPSRFSGRGSGTFYSLTISTVEAEDAADYYCHQWSNYPSTFGTGTKLELK
notes: also called anti-MUC18 antibody CL070324
B9: CL070370 (antibody, V domains shown)
VH: QIQLVQSGPELKKPGETVKISCKTSGYTFTDYSMHWVKQAPRKGLKWMGWINTETGEPTYADDFKGRFAFSLETSASTAYLQINNLRNEDTATYFCVSYDYDAVSYWGQGTLVTVSA
VL: DIVMTQSHKFMSTSVGDRVNITCKASQYVGAAVAWYQQKPGQSPKLLIYWASTRHTGVPDRFTGSGSGTDFTLTINNVQSEDLADYFCQQYGNYRTFGGGTKLEIK
notes: also called anti-MUC18 antibody CL070370
B10: J253 (antibody, V domains shown)
VH: QVQLQQSGAELVKPGASVKLSCKASGYTFTSYDINWVRQRPEQGLEWIGWIFPGDGSTDYNEKFKGKATLTTDKSSSTAYMQLSRLTSEDSAVYFCARYHFFDNWGQGTTLTVSS
VL: DIVITQDELSNPVTSGESVSISCRSSKSLLYKDGKTYLSWFLQRPGQSPQLLIYLMSTRASGVSDRFSGSGSGTDFTLEISRVKAEDVGVYYCQQLVEYPYTFGGGTKLEIK
notes: also called anti-MUC18 antibody (J253)

One assay concerns the target T1, human MUC18. Kind of assay: cell-based or functional assay.
Consider B1, for which the “IC50 of cell viability, GAK cells” value stood at 0.297 nM; the “IC50 of cell viability, HMV-II cells” value is 0.103 nM; the “IC50 of cell viability, SK-MEL-2 cells” value came to 0.115 nM.

The target in another assay is T2, recombinant MUC18 protein (rProtein). Description: ELISA titration, antibody with varying concentrations of recombinant MUC18 protein. How it is done:
Antibodies were incubated with varying concentrations of recombinant MUC18 protein (rProtein).
Take B2: the Binding affinity was determined as 50 nM. On the same count and under the same terms, the figure for B3 is 0.19 nM; for B4 it is 1.56 nM. Regarding B5, the Binding affinity was 12.5 nM.

Turning to B6, the Binding affinity came to 0.39 nM. Still for that read-out and setting: the figure for B7 is 0.39 nM.

Regarding B8, the Binding affinity came to 50 nM.

As to B9, the Binding affinity came to 3.12 nM.

Regarding B10, the Binding affinity stood at 0.39 nM.
